Results on 1 molecule are retold here after patent US12338281B2, “Anti-adrenomedullin antibodies and pharmaceutical compositions thereof” (ADRENOMED AG, priority 2011, dated 2025).

For one assay, the target named is T1, Human ADM 1-52 (Homo sapiens, UniProt P35318).
T1 construct: host or cells: the receptor chains are made by transfected CHO-K1 cells (FAST-027C); ADM is an added peptide
T1 sequence (P35318 95-146): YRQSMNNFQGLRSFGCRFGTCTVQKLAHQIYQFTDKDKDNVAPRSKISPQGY
Briefly: Human recombinant Adrenomedullin receptor (CRLR+RAMP3) cAMP functional assay (Adrenomedullin Bioassay) in CHO-K1 cells, agonist human ADM. The assay is classed as cell-based. To be noted: Table 3; 5.63 nM Human ADM 1-52; antibody 0.16-100 μg/ml. The protocol: The effect of selected ADM-antibodies on ADM-bioactivity was tested in an human recombinant Adrenomedullin receptor cAMP functional assay (Adrenomedullin Bioassay).
• Cell line: CHO-K1 • Receptor: Adrenomedullin (CRLR+RAMP3) • Receptor Accession Number Cell line: CRLR: U17473; RAMP3: AJ001016
Dose response curves were performed in parallel with the reference agonists (hADM or mADM).
For antagonist testing, 6 μl of the reference agonist (human (5.63 nM) or mouse (0.67 nM) adrenomedullin) was mixed with 6 μl of the test samples at different antagonist dilutions; or with 6 μl buffer. After incubation for 60 min at room temperature, 12 μl of cells (2,500 cells/well) were added. The plates were incubated for 30 min at room temperature.
The anti-h-ADM antibodies (NT-H, MR-H, CT-H) were tested for antagonist activity in human recombinant adrenomedullin receptor (FAST-027C) cAMP functional assay in the presence of 5.63 nM Human ADM 1-52, at the following final antibody concentrations: 100 μg/ml, 20 μg/ml, 4 μg/ml, 0.8 μg/ml, 0.16 μg/ml.

Another assay has as its target T2, hADM (Homo sapiens, UniProt P35318).
T2 sequence (P35318 95-146 limits assumed): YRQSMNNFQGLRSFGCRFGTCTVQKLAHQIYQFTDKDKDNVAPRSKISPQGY
Put plainly: Stability of human Adrenomedullin in human citrate plasma, quantified by hADM immunoassay. Type of assay: in vitro ADME. To be noted: 10 nM hADM, 24° C., NT-H 100 μg/ml.

Description for hADM: The stabilizing effect of human ADM by human ADM antibodies was tested using a hADM immunoassay.
The technology used was a sandwich coated tube luminescence immunoassay, based on Acridinium ester labelling.
The final concentration was approx. 800.000 relative light units (RLU) of labelled compound (approx. 20 ng labeled antibody) per 200 μL.
After blocking with 5% bovine serum albumine, the tubes were washed with PBS, pH 7.4 and vacuum dried.
Unbound tracer was removed by washing 5 times (each 1 ml) with washing solution (20 mM PBS, pH 7.4, 0.1% Triton X-100).
Human ADM was diluted in human Citrate plasma (final concentration 10 nM) and incubated at 24° C. At selected time points, the degradation of hADM was stopped by freezing at −20° C. […] The remaining hADM was quantified by using the hADM immunoassay described above.

B1: NT-H: mouse monoclonal antibody raised against human ADM 1-21, … (SEQ ID: 15) (antibody, V domains shown)
VH: QVQLQQSGAELMKPGASVKISCKATGYTFSRYWIEWVKQRPGHGLEWIGEILPGSGSTNYNEKFKGKATITADTSSNTAYMQLSSLTSEDSAVYYCTEGYEYDGFDYWGQGTTLTVSS
VL: DVLLSQTPLSLPVSLGDQATISCRSSQSIVYSNGNTYLEWYLQKPGQSPKLLIYRVSNRFSGVPDRFSGSGSGTDFTLKISRVEAEDLGVYYCFQGSHIPYTFGGGTKLEIK
Turning to B1, the “Maximal inhibition of ADM bioactivity (ADM-Bioassay) (%)” value with Human ADM 1-52 came to 38%. For the same molecule, in the assay with hADM, the “half life of hADM in the presence of NT-H” value amounted to 18.3 h.
